Values quoted from earlier work as cited in paper PMC3433420.
Like-named read-outs stand apart in the source and are kept apart here.

Experiments:
Details in all cases: cited from earlier work
BLK (Homo sapiens) [1] = molecular target: BLK (Homo sapiens) (UniProt P51451)
ITK (Homo sapiens) = ITK (Homo sapiens) (UniProt Q08881)
SUPT6H (Homo sapiens) = SUPT6H (Homo sapiens) (UniProt Q7KZ85)
SH2B3 (Homo sapiens) = SH2B3 (Homo sapiens) (UniProt Q9UQQ2)
PIK3R3-NC (Homo sapiens) = PIK3R3-NC (Homo sapiens) (UniProt Q92569)
PIK3R1-NC (Homo sapiens) [2] = molecular target: PIK3R1-NC (Homo sapiens) (UniProt P27986)
SOCS5 (Homo sapiens) = SOCS5 (Homo sapiens) (UniProt O75159)
BCAR3 (Homo sapiens) = BCAR3 (Homo sapiens) (UniProt O75815)
PTPN6-C (Homo sapiens) = PTPN6-C (Homo sapiens) (UniProt P29350)
BMX (Homo sapiens) = BMX (Homo sapiens) (UniProt P51813)
TXK (Homo sapiens) = TXK (Homo sapiens) (UniProt P42681)
BTK (Homo sapiens) = BTK (Homo sapiens) (UniProt Q06187)
FER (Homo sapiens) = FER (Homo sapiens) (UniProt P16591)
LYN (Homo sapiens) = LYN (Homo sapiens) (UniProt P07948)
ABL1 (Homo sapiens) = ABL1 (Homo sapiens) (UniProt P00519)
HSH2D (Homo sapiens) = HSH2D (Homo sapiens) (UniProt Q96JZ2)
PLCG1-C (Homo sapiens) = PLCG1-C (Homo sapiens) (UniProt P19174)
PIK3R1-N (Homo sapiens) = PIK3R1-N (Homo sapiens) (UniProt P27986)
TNS4 (Homo sapiens) = TNS4 (Homo sapiens) (UniProt Q8IZW8)
NCK1 (Homo sapiens) = NCK1 (Homo sapiens) (UniProt P16333)
PIK3R1-NC (Homo sapiens) [3] = molecular target: PIK3R1-NC (Homo sapiens) (UniProt P27986); remark: listed apart in the source
SHC3 (Homo sapiens) = SHC3 (Homo sapiens) (UniProt Q92529)
NCK2 (Homo sapiens) = NCK2 (Homo sapiens) (UniProt O43639)
CRKL (Homo sapiens) = CRKL (Homo sapiens) (UniProt P46109)
SYK-NC (Homo sapiens) = SYK-NC (Homo sapiens) (UniProt P43405)
BLK (Homo sapiens) [4] = molecular target: BLK (Homo sapiens) (UniProt P51451); remark: listed apart in the source
SH2B2 (Homo sapiens) = SH2B2 (Homo sapiens) (UniProt O14492)
SOCS2 (Homo sapiens) = SOCS2 (Homo sapiens) (UniProt O14508)
FGR (Homo sapiens) = FGR (Homo sapiens) (UniProt P09769)
RASA1-N (Homo sapiens) = RASA1-N (Homo sapiens) (UniProt P20936)
SHC1-PTB (Homo sapiens) = SHC1-PTB (Homo sapiens) (UniProt P29353)
Chain of SHC1-PTB (Homo sapiens) (P29353 483-583): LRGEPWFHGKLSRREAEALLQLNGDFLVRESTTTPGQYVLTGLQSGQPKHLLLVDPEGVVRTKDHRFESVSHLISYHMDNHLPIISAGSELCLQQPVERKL

Chain of BLK (Homo sapiens) (P51451 119-225): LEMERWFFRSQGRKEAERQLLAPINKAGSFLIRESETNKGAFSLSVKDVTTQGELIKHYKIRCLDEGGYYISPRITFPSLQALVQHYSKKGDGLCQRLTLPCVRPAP
Chain of PIK3R1-NC (Homo sapiens) (P27986 328-723): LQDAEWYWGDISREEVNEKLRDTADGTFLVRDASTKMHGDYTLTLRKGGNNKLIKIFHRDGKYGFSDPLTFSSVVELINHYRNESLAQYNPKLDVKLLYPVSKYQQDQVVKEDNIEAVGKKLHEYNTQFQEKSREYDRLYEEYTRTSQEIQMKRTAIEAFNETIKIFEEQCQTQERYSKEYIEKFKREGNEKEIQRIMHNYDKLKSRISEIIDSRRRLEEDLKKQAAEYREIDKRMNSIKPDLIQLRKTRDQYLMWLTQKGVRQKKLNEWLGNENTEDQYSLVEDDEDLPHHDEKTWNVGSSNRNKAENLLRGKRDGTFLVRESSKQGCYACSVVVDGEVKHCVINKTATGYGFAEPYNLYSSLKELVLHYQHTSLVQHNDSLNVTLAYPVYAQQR
Chain of TNS4 (Homo sapiens) (Q8IZW8 444-561): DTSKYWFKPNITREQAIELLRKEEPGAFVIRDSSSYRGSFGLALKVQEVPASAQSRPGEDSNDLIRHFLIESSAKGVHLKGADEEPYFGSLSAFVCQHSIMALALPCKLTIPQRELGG
Chain of PIK3R1-N (Homo sapiens) (P27986 328-723): as the sequence (P27986 328-723) above
Chain of HSH2D (Homo sapiens) (Q96JZ2 29-130): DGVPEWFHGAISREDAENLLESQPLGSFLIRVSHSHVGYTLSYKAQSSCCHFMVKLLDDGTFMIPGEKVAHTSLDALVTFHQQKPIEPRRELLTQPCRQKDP
Chain of ABL1 (Homo sapiens) (P00519 122-222): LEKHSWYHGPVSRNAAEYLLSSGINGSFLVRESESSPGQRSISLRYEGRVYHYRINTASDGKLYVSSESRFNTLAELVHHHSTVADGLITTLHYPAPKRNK
Chain of PLCG1-C (Homo sapiens) (P19174 545-761): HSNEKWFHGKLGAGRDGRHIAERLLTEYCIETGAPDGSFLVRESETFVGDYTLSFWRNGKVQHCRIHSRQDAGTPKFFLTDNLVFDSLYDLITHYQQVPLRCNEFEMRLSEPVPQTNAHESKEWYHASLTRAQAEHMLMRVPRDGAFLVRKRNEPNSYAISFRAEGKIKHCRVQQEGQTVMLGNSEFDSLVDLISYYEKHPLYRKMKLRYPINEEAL
Chain of SOCS5 (Homo sapiens) (O75159 376-481): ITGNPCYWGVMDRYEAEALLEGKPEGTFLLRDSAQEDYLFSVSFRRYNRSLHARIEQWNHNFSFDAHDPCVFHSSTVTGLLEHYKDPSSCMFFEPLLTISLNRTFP
Chain of CRKL (Homo sapiens) (P46109 9-107): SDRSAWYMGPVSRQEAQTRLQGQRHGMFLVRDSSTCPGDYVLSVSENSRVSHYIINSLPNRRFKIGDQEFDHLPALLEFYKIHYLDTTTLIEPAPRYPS
Chain of NCK2 (Homo sapiens) (O43639 280-380): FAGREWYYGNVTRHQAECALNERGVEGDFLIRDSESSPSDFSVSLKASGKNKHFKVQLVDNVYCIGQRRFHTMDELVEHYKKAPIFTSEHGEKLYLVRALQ
Chain of LYN (Homo sapiens) (P07948 124-231): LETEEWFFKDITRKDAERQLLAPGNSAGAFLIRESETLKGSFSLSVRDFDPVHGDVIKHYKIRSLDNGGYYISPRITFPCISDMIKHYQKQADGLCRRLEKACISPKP
Chain of BTK (Homo sapiens) (Q06187 276-382): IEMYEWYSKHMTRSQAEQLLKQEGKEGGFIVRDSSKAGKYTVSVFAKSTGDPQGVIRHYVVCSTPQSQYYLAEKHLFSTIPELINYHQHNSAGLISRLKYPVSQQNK
Chain of SUPT6H (Homo sapiens) (Q7KZ85 1320-1436): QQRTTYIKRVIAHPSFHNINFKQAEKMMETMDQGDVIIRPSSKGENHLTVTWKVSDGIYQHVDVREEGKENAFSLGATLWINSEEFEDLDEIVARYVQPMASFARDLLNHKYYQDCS
Chain of BMX (Homo sapiens) (P51813 291-397): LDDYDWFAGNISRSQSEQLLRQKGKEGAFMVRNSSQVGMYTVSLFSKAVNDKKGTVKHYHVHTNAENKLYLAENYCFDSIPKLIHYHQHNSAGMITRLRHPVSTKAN
Chain of PTPN6-C (Homo sapiens) (P29350 1-218): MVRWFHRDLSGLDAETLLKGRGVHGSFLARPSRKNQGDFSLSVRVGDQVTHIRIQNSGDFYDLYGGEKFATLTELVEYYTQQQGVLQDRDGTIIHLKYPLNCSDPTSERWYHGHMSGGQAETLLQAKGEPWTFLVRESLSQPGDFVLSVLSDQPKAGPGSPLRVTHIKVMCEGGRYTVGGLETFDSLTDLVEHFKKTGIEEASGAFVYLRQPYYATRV
Chain of TXK (Homo sapiens) (P42681 145-251): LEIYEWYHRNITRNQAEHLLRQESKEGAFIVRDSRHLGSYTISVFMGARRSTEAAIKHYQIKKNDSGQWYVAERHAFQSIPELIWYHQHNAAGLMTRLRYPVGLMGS
Chain of ITK (Homo sapiens) (Q08881 234-343): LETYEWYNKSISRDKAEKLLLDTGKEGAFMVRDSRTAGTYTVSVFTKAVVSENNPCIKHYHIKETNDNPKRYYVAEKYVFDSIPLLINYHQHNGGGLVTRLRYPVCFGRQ
Chain of SHC3 (Homo sapiens) (Q92529 494-594): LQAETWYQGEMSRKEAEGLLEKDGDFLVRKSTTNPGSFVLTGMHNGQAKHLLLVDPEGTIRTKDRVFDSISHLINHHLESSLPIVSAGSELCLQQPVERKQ
Chain of FER (Homo sapiens) (P16591 455-555): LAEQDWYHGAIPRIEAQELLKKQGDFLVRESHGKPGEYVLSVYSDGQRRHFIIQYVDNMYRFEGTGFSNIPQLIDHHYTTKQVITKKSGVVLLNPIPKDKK
Chain of BCAR3 (Homo sapiens) (O75815 149-258): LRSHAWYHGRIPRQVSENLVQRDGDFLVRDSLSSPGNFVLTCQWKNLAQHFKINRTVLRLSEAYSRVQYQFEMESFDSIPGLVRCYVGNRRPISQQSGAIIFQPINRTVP
Chain of SH2B2 (Homo sapiens) (O14492 412-520): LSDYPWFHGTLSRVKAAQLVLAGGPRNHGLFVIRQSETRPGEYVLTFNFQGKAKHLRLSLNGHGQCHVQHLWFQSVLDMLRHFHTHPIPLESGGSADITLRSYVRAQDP
Chain of SOCS2 (Homo sapiens) (O14508 43-161): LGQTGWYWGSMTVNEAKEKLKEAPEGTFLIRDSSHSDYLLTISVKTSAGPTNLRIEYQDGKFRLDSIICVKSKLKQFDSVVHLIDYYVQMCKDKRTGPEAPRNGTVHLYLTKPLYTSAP
Chain of RASA1-N (Homo sapiens) (P20936 176-446): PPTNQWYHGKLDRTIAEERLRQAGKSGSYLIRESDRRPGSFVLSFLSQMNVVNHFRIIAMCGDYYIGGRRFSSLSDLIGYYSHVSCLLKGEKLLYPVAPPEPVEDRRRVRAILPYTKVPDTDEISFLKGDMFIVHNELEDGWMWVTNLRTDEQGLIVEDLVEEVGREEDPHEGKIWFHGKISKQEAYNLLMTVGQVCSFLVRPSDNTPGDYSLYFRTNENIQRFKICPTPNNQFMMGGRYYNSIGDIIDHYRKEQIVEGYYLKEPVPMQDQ
Chain of SH2B3 (Homo sapiens) (Q9UQQ2 359-467): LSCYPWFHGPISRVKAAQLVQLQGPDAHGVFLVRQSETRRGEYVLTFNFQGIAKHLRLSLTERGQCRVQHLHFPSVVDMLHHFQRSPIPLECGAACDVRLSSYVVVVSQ

## …pYWDQDPPE
BLK (Homo sapiens) [1]
  apparent Kd (screen): 2000 nM
ITK (Homo sapiens)
  apparent Kd (screen): 224 nM
SUPT6H (Homo sapiens)
  apparent Kd (screen): 2000 nM
SH2B3 (Homo sapiens)
  apparent Kd (screen): 2000 nM
PIK3R3-NC (Homo sapiens)
  apparent Kd (screen): 783 nM
PIK3R1-NC (Homo sapiens) [2]
  apparent Kd (screen): 1840 nM
SOCS5 (Homo sapiens)
  apparent Kd (screen): 2000 nM
BCAR3 (Homo sapiens)
  apparent Kd (screen): 2000 nM
PTPN6-C (Homo sapiens)
  apparent Kd (screen): 2000 nM
BMX (Homo sapiens)
  apparent Kd (screen): 2000 nM
TXK (Homo sapiens)
  apparent Kd (screen): 2000 nM
BTK (Homo sapiens)
  apparent Kd (screen): 2000 nM

## …pYEEMRAFQ
FER (Homo sapiens)
  apparent Kd (screen): 499 nM
LYN (Homo sapiens)
  apparent Kd (screen): 340 nM
ABL1 (Homo sapiens)
  apparent Kd (screen): 633 nM
HSH2D (Homo sapiens)
  apparent Kd (screen): 2000 nM
PLCG1-C (Homo sapiens)
  apparent Kd (screen): 321 nM

## …pYLIPQQGFd
PIK3R1-N (Homo sapiens)
  apparent Kd (screen): 646 nM
TNS4 (Homo sapiens)
  apparent Kd (screen): 922 nM
NCK1 (Homo sapiens)
  apparent Kd (screen): 1000 nM
PIK3R1-NC (Homo sapiens) [3]
  apparent Kd (screen): 295 nM
SHC3 (Homo sapiens)
  apparent Kd (screen): 216 nM
NCK2 (Homo sapiens)
  apparent Kd (screen): 2000 nM
CRKL (Homo sapiens)
  apparent Kd (screen): 998 nM

## …pYLVPQQGF
SYK-NC (Homo sapiens)
  apparent Kd (screen): 372 nM
BLK (Homo sapiens) [4]
  apparent Kd (screen): 2000 nM
SH2B2 (Homo sapiens)
  apparent Kd (screen): 2000 nM
SOCS2 (Homo sapiens)
  apparent Kd (screen): 2000 nM
FGR (Homo sapiens)
  apparent Kd (screen): 2000 nM
RASA1-N (Homo sapiens)
  apparent Kd (screen): 2000 nM
SHC1-PTB (Homo sapiens)
  apparent Kd (screen): 2000 nM
